The assay has as its target human CD137 expressed on cells (Jurkat human CD137 NF-kB luciferase reporter cells; human CD8+ T cells) (human) (UniProt Q07011). The assay can be described thus: cell-based or functional assay.

On to Urelumab analog (antibody), for which the CD8+ T-cell activation assay - IL-2 release, EC50 was 0.397 nM.
